These results are taken from article PMC4221134 (Advances in biological regulation, 2013).

This data set concerns the molecule itself. Nature of the data set: native MS.

B1: S-RASSF5 SARAH (domain or fragment)
chain: GEVEWDAFSIPELQNFLTILEKEEQDKIQQVQKKYDKFRQKLEEALRESQGKPG
For B1, the binding result was “binds”.

B2: MST1 SARAHmyc (domain or fragment)
chain: DYEFLKSWTVEDLQKRLLALDPMMEQEIEEIRQKYQSKRQPILDAIEAKKRRQQNF
B2: the binding result is “binds”.
